{"source": "patent US20170247440A1", "about": "(Hoffmann-La Roche, published 2017)", "binders": {"B1": {"name": "antibody 0060 (antibody, V domains shown)", "VH": "EVQLLESGGDLVQPGGSLRLSCAASGFTFRSYAMSWVRQAPGKGLEWVSGISAGGGYIYYADSVTGRFTSSRDNYKNTLYLQMNRLRVEDTAVYYCARFYPGYNSDTYYYDGMDVWGQGTTVTVSS", "VL": "not shown", "notes": "Human antibody from a human Ig locus transgenic rabbit; IgG"}, "B2": {"name": "antibody 0058 (antibody, V domains shown)", "VH": "EVQLVESGGGLVQPGGSLRLSCAASGFTFSSFWMTWVRQAPGKGLEWVASISAGGGITHYPDSVKDRFTVSRDNAKNSLYLQLNSLRAEDTAVYYCAESGGDIYSDFDYWGQGTLVTVSS", "VL": "not shown", "notes": "as for B1"}, "B3": {"name": "antibody 0064 (antibody, V domains shown)", "VH": "EVQLVESGGGLVQPGGSLRLSCAASGFTFSSYWMSWVRQAPGKGLEWVSTISDGGGTTSYADSVKGRFTISRDNSKNTLYLQMNSLRAEDTAVYSCAESGGATDYLFDYWGQGTLVTVSS", "VL": "not shown", "notes": "as for B1"}}}
{"target": "T1, cynomolgus PDGF-BB (cynomolgus, UniProt A0A2K5UX81 82-190, Disulfide-linked homodimer of two identical B chains; one copy is given.)", "T1 construct": "also called cynPDGF-BB", "T1 sequence (A0A2K5UX81 entry or part of it limits assumed)": "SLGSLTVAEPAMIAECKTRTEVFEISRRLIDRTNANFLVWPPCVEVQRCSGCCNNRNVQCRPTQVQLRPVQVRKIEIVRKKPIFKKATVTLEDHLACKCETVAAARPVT", "experiment": "SPR, IgG on immobilized cynomolgus PDGF-BB (Example 18)", "protocol": "(§1) The binding analysis was carried out using a surface plasmon resonance spectroscopy-based technology applying a BIAcore B4000 system (GE Healthcare). The antigen cynomolgus PDGF-BB was immobilized at a concentration of 1 μg/mL in PBS, 0.1% BSA, 0.05% Tween using amine coupling chemistry on a C1 sensor chip (GE Healthcare, Cat. No. BR-1005-35). Anti-PDGF-BB antibody in increasing concentrations was applied in 10 mM HEPES pH 7.2, 150 mM NaCl. Utilizing a read out time of 180 sec. association phase and 600 sec. dissociation phase the apparent kₐ and apparent kd were calculated. The apparent KD (avidity) was calculated using the BIAcore T200 v2.0 fitting software.", "units": {"koff": "s⁻¹", "kon": "M⁻¹ s⁻¹"}}
{"binder": "B1", "koff": "< 1e-05", "kon": 330000}
{"binder": "B2", "koff": "6.53e-05", "kon": "2.27e+06"}
{"binder": "B3", "koff": "4.42e-05", "kon": 740000}
{"target": "T2, human PDGF-BB (human, UniProt P01127 82-190)", "T2 construct": "Bought recombinant protein (Cell Signaling 8921BF or R&D Systems 220-BB); also called huPDGF-BB; recombinant human PDGF-BB", "T2 sequence (P01127 82-190 limits assumed)": "as the sequence (A0A2K5UX81 entry or part of it limits assumed) above, with V7I counted along it", "experiment": "SPR, IgG, apparent KD (App. KD**)", "units": {"Kd": "nM"}}
{"binder": "B1", "Kd": 0.021}
{"binder": "B2", "Kd": 0.046}
{"binder": "B3", "Kd": 0.021}
{"target": "T2, human PDGF-BB", "experiment": "inhibition ELISA: biotinylated huPDGF-BB binding to immobilized Fc-tagged huPDGF-Rβ (Example 15)", "protocol": "The protein-protein interaction inhibition analysis of human PDGF-BB to the human PDGF-BB receptor was carried out using an enzyme-linked immunosorbent assay (ELISA)-based technology. The human Fc-tagged PDGF-BB receptor protein (RnD, Cat. No. 385-PR-100) was immobilized at a concentration of […] in 25 μL in PBS, 0.5% BSA and 0.05% Tween on a 384 well microtiter plate (Thermo Scientific Cat. No. 464718). Every of the following steps was followed by a washing routine of 3 times 90 μL PBS with dispense and aspiration: 1) blocking step saturating unbound surface (1 hour, 2% BSA); 2) 15 μL anti-PDGF-BB antibody in increasing concentrations was incubated with 15 μL biotinylated human PDGF-BB (Cell Signaling, Cat. No. 8921BF) at 75 nM in a volume of 30 μL for 1 hour; 3) detection was achieved using peroxidase-labeled streptavidin (Roche Diagnostics GmbH, Mannheim, Germany, Cat. No. 11089153001). 20-30 min. after adding the substrate 3,3′,5,5′-tetramethylbenzidine (TMB, Piercenet, Cat. No. 34021) the optical density was determined at 370 nm. The IC₅₀ was calculated with a four parameter logistic model using GraphPad Prism 6.0 software.", "units": {"IC50": "µg/mL"}}
{"binder": "B1", "IC50": 0.0554}
{"binder": "B2", "IC50": 0.0425}
{"binder": "B3", "IC50": 0.0343}
{"target": "T1, cynomolgus PDGF-BB", "experiment": "SPR, apparent KD (avidity), IgG on immobilized cynomolgus PDGF-BB (Example 18)", "protocol": "as §1", "units": {"Kd": "nM"}}
{"binder": "B1", "Kd": "< 0.0303"}
{"binder": "B2", "Kd": 0.0288}
{"binder": "B3", "Kd": 0.0596}
{"target": "T2, human PDGF-BB", "experiment": "SPR, IgG", "units": {"T½": "h"}}
{"binder": "B1", "T½": 1.9}
{"binder": "B2", "T½": 1.42}
{"binder": "B3", "T½": 1.9}
{"target": "rat PDGF-BB (rat, UniProt Q05028 74-182)", "sequence (Q05028 74-182)": "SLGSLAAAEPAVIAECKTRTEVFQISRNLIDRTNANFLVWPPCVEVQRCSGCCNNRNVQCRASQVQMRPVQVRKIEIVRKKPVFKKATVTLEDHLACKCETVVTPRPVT", "experiment": "ELISA, immobilized rat PDGF-BB (Example 12)", "protocol": "The binding analysis was carried out using an enzyme-linked immunosorbent assay (ELISA)-based technology. The antigen rat PDGF-BB (R&D, 520-BB) was immobilized at a concentration of 125 ng/mL in 25 μL in PBS, 0.5% BSA and 0.05% Tween on a 384 well microtiter plate (Thermo Scientific, Cat. No. 464718). Every of the following steps was followed by a washing routine of 3 times 90 μL PBS, 0.5% BSA, 0.05 Tween with dispense and aspiration: 1) blocking step: saturating unbound surface (1 hour, 2% BSA); 2) anti-PDGF-BB antibody in increasing concentrations for 1 hour; 3) detection antibody, dilution=1:3000 (ECL anti-rabbit IgG-POD, NA9340V+ECL anti-human IgG-POD, NA933V or alternatively for murine antibodies ECL anti-mouse IgG-POD; NA 9310V). 20-30 min. after adding the substrate 3,3′,5,5′-tetramethylbenzidine (TMB, Piercenet, Cat. No. 34021) the optical density was determined at 370 nm. The EC₅₀ was calculated with a four parameter logistic model using GraphPad Prism 6.0 software.", "units": {"EC50": "µg/mL"}}
{"binder": "B1", "EC50": 0.11}
{"binder": "B2", "EC50": 0.0966}
{"binder": "B3", "EC50": 0.00369}
